Where a chain is given by its changes, count along the chain named.
B1: Fab 298 (Fab, V domains shown)
VH: QVQLVQSGAEVKKPGASVKVSCKASGGTFSTYGISWVRQAPGQGLEWMGWISPNSGGTDLAQKFQGRVTMTRDTSTSTVYMELSSLRSEDTAVYYCASDPRDDIAGGYWGQGTLVTVSS
VL: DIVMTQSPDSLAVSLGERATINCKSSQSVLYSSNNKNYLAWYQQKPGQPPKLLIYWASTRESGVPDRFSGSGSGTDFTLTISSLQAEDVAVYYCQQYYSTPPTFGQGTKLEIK
notes: also called 298 Fab
B2: Fab 52 (Fab, V domains shown)
VH: QVQLVQSGAEVKKPGSSVKVSCKASGYTFTSYGISWVRQAPGQGLEWMGGIIPMFGTTNYAQKFQGRVTITADKSTSTAYMELSSLRSEDTAVYYCARDRGDTIDYWGQGTLVTVSS
VL: DIQMTQSPSSLSASVGDRVTITCRASQGISNNLNWYQQKPGKAPKLLIYAASSLESGVPSRFSGSGSGTDFTLTISSLQPEDFATYYCQQGNGFPLTFGPGTKVDIK
notes: also called 52 Fab
B3: 56 (antibody, V domains shown)
VH: QVQLVQSGAEVKKPGASVKVSCKASGYTFTSYGISWVRQAPGQGLEWMGWISAYNGNTNYAQKLQGRVTMTRDTSTSTVYMELSSLRSEDTAVYYCARDIGPIDYWGQGTLVTVSS
VL: DIQMTQSPSSLSASVGDRVTITCRASQGISSYLAWYQQKPGKAPKLLIYDASNLQSGVPSRFSGSGSGTDFTLTISSLQPEDFATYYCQQANSFPSTFGQGTKVEIK
B4: 349 (antibody, V domains shown)
VH: EVQLLESGGGLVQPGGSLRLSCAASGFTFSNYGMHWVRQAPGKGLEWVSGISSAGSITNYADSVKGRFTISRDNSKNTLYLQMNSLRAEDTAVYYCAGNHAGTTVTSEYFQHWGQGTLVTVSS
VL: DIQMTQSPSSLSASVGDRVTITCRASQSISSWLAWYQQKPGKAPKLLIYDTSNLETGVPSRFSGSGSGTDFTLTISSLQPEDFATYYCQQSYTTPWTFGQGTRLEIK
B5: 178 (antibody, V domains shown)
VH: QVQLVQSGAEVKKPGASVKVSCKASGYTFTDYHMHWVRQAPGQGLEWMGWINPNSGGTNYAQKFQGRVTMTRDTSTSTVYMELSSLRSEDTAVYYCARDISSWYEITKFDPWGQGTLVTVSS
VL: EIVMTQSPATLSVSPGERATLSCKASQSVSGTYLAWYQQKPGQAPRLLIYGASTRATGIPARFSGSGSGTEFTLTISSLQSEDFAVYYCLQTHSYPPTFGQGTKVEIK
B6: 108 (antibody, V domains shown)
VH: QVQLVQSGAEVKKPGASVKVSCKASGYIFSRYAIHWVRQAPGQGLEWMGWMNPISGNTDYAPNFQGRVTMTRDTSTSTVYMELSSLRSEDTAVYYCAKDGSQLAYLVEYFQHWGQGTLVTVSS
VL: B4 VL with S28V, S30T, S31N, W32N, T51A, N53T, T94F, W96Y, R103K, L104V
B7: 128 (antibody, V domains shown)
VH: QVQLVQSGAEVKKPGASVKVSCKASGYTFTHYYMHWVRQAPGQGLEWMGIINPSSSSASYSQKFQGRVTMTRDTSTSTVYMELSSLRSEDTAVYYCARDGRYGSGSYPFDYWGQGTLVTVSS
VL: B3 VL with G28N, S31R, A34N, Q55E, S56T, S93G, S96P, V104L
B8: 160 (antibody, V domains shown)
VH: QVQLVQSGAEVKKPGASVKVSCKASGYTFTGHDMHWVRQAPGQGLEWMGIINPSGGSTSYAQKFQGRVTMTRDTSTSTVYMELSSLRSEDTAVYYCARANSLRYYYGMDVWGQGTMVTVSS
VL: B4 VL with I29V, D50A, T51A, N53S, E55Q, T56S, S91G, W96Y, R103K
B9: 158 (antibody, V domains shown)
VH: QVQLVQSGAEVKKPGASVKVSCKASGYTFTGYYMHWVRQAPGQGLEWMGWINPLNGGTNFAPKFQGRVTMTRDTSTSTVYMELSSLRSEDTAVYYCARDPGGSYSNDAFDIWGQGTLVTVSS
VL: B3 VL with G28S, S31R, A34N, Q55E, S96L, Q100G, E105D
B10: 254 (antibody, V domains shown)
VH: EVQLLESGGGLVQPGGSLRLSCAASGFTFSSSAMHWVRQAPGKGLEWVSAIGTGGDTYYADSVKGRFTISRDNSKNTLYLQMNSLRAEDTAVYYCAREGDGYNFYFDYWGQGTLVTVSS
VL: DIQMTQSPSSLSASVGDRVTITCRASQGISSYLAWYQQKPGKAPKLLIYDASSLQIGVPSRFSGSGSGTDFTLTISSLQPEDFATYYCLQSYSTPPWTFGQGTKVEIK
B11: 120 (antibody, V domains shown)
VH: QVQLVQSGAEVKKPGASVKVSCKASGYTFTSYDINWVRQAPGQGLEWMGMIDPSGGSTSYAQKFQGRVTMTRDTSTSTVYMELSSLRSEDTAVYYCAKDFGGGTRYDYWYFDLWGRGTLVTVSS
VL: EIVMTQSPATLSVSPGERATLSCRASQSVSSRYLAWYQQKPGQAPRLLIYGASTRATGIPARFSGSGSGTEFTLTISSLQSEDFAVYYCQQYYTTPRTFGQGTRLEIK
B12: 64 (antibody, V domains shown)
VH: EVQLLESGGGLVQPGGSLRLSCAASGFPFSQHGMHWVRQAPGKGLEWVSAIDRSGSYIYYADSVKGRFTISRDNSKNTLYLQMNSLRAEDTAVYYCARDTYGGKVTYFDYWGQGTLVTVSS
VL: B3 VL with Y32H, Q55E, S56T, A91T, N92Y, F94T, S96W
B13: mAb 80, full-length IgG (antibody, V domains shown)
VH: QVQLVQSGAEVKKPGSSVKVSCKASGGTFNRYAFSWVRQAPGQGLEWMGGIIPIFGTANYAQKFQGRVTITADESTSTAYMELSSLRSEDTAVYYCARSTRELPEVVDWYFDLWGRGTLVTVSS
VL: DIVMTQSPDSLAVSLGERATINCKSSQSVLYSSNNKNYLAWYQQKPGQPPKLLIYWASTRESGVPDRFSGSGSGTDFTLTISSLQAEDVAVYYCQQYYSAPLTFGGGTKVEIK
B14: mAb 298, full-length IgG (antibody, V domains shown)
VH: B1 VH
VL: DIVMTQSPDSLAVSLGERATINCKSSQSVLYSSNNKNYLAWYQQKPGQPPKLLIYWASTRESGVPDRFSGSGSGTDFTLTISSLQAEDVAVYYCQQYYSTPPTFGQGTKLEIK
notes: also called IgG 298; antibody 298
B15: mAb 82, full-length IgG (antibody, V domains shown)
VH: QVQLVQSGAEVKKPGASVKVSCKASGGSFSTSAFYWVRQAPGQGLEWMGWINPYTGGTNYAQKFQGRVTMTRDTSTSTVYMELSSLRSEDTAVYYCARSRALYGSGSYFDYWGQGTLVTVSS
VL: B4 VL with S28V, S31N, W32Y, T51A, Y92F, T93S, T94P, W96P
B16: mAb 46, full-length IgG (antibody, V domains shown)
VH: EVQLLESGGGLVQPGRSLRLSCAASGFTFSSYAMSWVRQAPGKGLEWVSTIYSGGSTYYADSVKGRFTISRDNSKNTLYLQMNSLRAEDTAVYYCARGDSRDAFDIWGQGTMVTVSS
VL: B4 VL with T51A, T93S, W96F, Q100P, R103K, L104V, E105D
notes: also called antibody 46
B17: mAb 324, full-length IgG (antibody, V domains shown)
VH: QVQLVQSGAEVKKPGASVKVSCKASGGTFNNYGISWVRQAPGQGLEWMGWMNPNSGNTGYAQKFQGRVTMTRDTSTSTVYMELSSLRSEDTAVYYCARVGDYGDYIVSPFDLWGRGTLVTVSS
VL: B4 VL with S30T, S31T, W32Y, A34N, T51A, T93S, W96P, R103K, L104V
B18: mAb 236, full-length IgG (antibody, V domains shown)
VH: QVQLVQSGAEVKKPGASVKVSCKASGGTFTSYGINWVRQAPGQGLEWMGWMNPNSGNTGYAQKFQGRVTMTRDTSTSTVYMELSSLRSEDTAVYYCASRGIQLLPRGMDVWGQGTTVTVSS
VL: not shown
B19: mAb 52, full-length IgG (antibody, V domains shown)
VH: B2 VH
VL: B2 VL
notes: also called antibody 52
B20: Fab 46 (Fab, V domains shown)
VH: B16 VH
VL: B4 VL with T51A, T93S, W96F, Q100P, R103K, L104V, E105D

These binders were tested against T1, SARS-CoV-2 Spike receptor binding domain (RBD), wild type, His-tagged (SARS-CoV-2, UniProt P0DTC2) (assay: crystal structure). Conditions: both partners purified.
T1 construct: also called WT RBD; BEI NR52309

| Binder | binding result |
| --- | --- |
| B1 | binds |
| B2 | binds |

The binders below were run against T1, SARS-CoV-2 Spike receptor binding … (assay: not given). Conditions: not given.

| Binder | Kd |
| --- | --- |
| B3 | 23 nM |
| B4 | 74 nM |
| B5 | 72 nM |
| B6 | 72 nM |
| B7 | 57 nM |
| B8 | 7.7 nM |
| B9 | 172 nM |
| B10 | 127 nM |
| B11 | 24 nM |
| B12 | 97 nM |

Each binder was assayed against T1, SARS-CoV-2 Spike receptor binding … (assay: BLI). Conditions: both partners purified.

| Binder | binding result |
| --- | --- |
| B13 | binds |
| B14 | binds |
| B15 | binds |
| B16 | binds |
| B17 | binds |
| B18 | binds |
| B19 | binds |

These binders were tested against T1, SARS-CoV-2 Spike receptor binding … (assay: cryo-EM structure). Conditions: both partners purified.

| Binder | binding result |
| --- | --- |
| B20 | binds |
